Literature values, collected in PMC8406260.
pKd: −log10 of the molar value.

Target: SARS-CoV-2 main protease Mpro (Severe acute respiratory syndrome coronavirus 2) (UniProt P0DTD1)

Substance: SARS-CoV-2 main protease Mpro (from UniProt P0DTD1)
- pKd: 5.70
